Results: patent US20170306014A1 (INNATE PHARMA, published 2017)

T1: Human Siglec-10 (human, UniProt Q96LC7 17-697)
T1 construct: CHO HuSiglec-10 cell line; also called HuSiglec-10
T1 sequence: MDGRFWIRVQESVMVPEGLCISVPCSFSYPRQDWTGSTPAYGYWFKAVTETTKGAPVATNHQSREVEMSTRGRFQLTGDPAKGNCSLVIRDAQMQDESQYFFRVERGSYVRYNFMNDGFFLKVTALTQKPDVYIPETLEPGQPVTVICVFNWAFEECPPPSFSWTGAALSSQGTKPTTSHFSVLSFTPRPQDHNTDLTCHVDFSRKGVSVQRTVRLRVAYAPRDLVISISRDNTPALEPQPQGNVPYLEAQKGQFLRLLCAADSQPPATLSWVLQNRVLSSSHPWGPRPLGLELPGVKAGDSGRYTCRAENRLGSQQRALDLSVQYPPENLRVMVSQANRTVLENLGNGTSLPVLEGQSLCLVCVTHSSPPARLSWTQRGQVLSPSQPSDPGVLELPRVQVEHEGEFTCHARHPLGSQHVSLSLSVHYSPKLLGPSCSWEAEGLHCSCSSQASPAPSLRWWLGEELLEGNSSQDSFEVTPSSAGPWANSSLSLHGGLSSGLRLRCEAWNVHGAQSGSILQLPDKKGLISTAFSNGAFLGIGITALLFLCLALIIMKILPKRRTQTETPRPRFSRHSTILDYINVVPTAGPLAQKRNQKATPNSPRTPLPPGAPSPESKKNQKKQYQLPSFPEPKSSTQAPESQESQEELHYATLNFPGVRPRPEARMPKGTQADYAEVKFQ

T2: Human Siglec-5 (human, UniProt O15389 17-551)
T2 construct: CHO HuSiglec-5 cell line; also called HuSiglec-5
T2 sequence: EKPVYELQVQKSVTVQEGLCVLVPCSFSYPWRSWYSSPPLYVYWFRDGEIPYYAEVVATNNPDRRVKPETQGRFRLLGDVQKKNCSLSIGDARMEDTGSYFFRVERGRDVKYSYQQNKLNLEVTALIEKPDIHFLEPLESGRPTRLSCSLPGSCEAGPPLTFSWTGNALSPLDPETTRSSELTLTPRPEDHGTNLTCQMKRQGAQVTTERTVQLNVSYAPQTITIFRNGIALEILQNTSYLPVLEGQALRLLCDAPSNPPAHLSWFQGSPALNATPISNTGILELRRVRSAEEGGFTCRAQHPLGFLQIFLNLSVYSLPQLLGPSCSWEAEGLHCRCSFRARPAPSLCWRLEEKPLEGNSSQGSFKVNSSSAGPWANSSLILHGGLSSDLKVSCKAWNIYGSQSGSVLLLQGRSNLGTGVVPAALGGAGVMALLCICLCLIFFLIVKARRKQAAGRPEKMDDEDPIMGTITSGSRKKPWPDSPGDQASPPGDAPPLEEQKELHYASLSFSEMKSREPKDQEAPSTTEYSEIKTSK

T3: Human Siglec-11 (human, UniProt Q96RL6 29-698)
T3 construct: CHO HuSiglec-11 cell line; also called HuSiglec-11
T3 sequence: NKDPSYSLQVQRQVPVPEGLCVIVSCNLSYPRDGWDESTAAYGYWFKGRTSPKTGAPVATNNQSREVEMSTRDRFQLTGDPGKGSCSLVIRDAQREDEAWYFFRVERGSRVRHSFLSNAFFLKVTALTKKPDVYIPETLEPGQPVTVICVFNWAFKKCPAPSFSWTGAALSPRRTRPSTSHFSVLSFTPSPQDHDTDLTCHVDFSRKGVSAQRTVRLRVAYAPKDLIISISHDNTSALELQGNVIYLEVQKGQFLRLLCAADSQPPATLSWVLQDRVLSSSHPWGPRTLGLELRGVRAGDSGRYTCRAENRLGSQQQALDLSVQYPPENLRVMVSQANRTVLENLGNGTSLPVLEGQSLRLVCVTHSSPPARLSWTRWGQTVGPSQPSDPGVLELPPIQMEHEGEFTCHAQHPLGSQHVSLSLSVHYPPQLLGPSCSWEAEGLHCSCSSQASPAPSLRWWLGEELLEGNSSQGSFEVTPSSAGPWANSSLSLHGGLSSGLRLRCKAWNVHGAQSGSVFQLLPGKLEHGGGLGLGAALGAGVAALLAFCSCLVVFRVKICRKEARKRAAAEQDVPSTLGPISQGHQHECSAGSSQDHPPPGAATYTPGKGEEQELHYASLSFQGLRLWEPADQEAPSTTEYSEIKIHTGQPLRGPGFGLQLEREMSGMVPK


Key:
Human Siglec-10 = target: T1, Human Siglec-10; assay: flow cytometry on CHO HuSiglec-10 cell line
Protocol: (§1) Cells expressing Siglec-3, -5, -6, -8, -10, -11 and -12 were generated and a representative subset of the cross-reactive Siglec-7/9 antibodies were tested by flow cytometry for binding to the cells. Amino acid sequences and Genbank references for Siglec polypeptides used are shown below in Table 1.
(§2) Briefly, HuSiglec-expressing CHO cell lines (that expressed one of the Siglecs) were used.

Human Siglec-5 = target: T2, Human Siglec-5; assay: flow cytometry on CHO HuSiglec-5 cell line
Protocol: as §1, §2

Human Siglec-12 = target: T4, Human Siglec-12 (human, UniProt Q96PQ1 19-595); assay: flow cytometry on CHO HuSiglec-12 cell line
T4 construct: CHO HuSiglec-12 cell line; also called HuSiglec-12
Protocol: as §1, §2

Human Siglec-6 = target: T5, Human Siglec-6 (human, UniProt O43699 27-453); assay: flow cytometry on CHO HuSiglec-6 cell line
T5 construct: CHO HuSiglec-6 cell line; also called HuSiglec-6
Protocol: as §1, §2

Human Siglec-9 = target: T6, Human Siglec-9 (human, UniProt Q9Y336 18-463); assay: flow cytometry on Siglec-9-expressing cell line
T6 construct: Expressed on CHO cells (huSiglec-9-expressing CHO cell line); also called huSiglec-9; CD329

Human Siglec-7 = target: T7, Human Siglec-7 (human, UniProt Q9Y286 19-467); assay: flow cytometry on Siglec-7-expressing cell line
T7 construct: Expressed on CHO cells (huSiglec-7-expressing CHO cell line); also called huSiglec-7; CD328

Human Siglec-8 = target: T8, Human Siglec-8 (human, UniProt Q9NYZ4 17-499); assay: flow cytometry on CHO HuSiglec-8 cell line
T8 construct: CHO HuSiglec-8 cell line; also called HuSiglec-8
Protocol: as §1, §2

Human Siglec-3 = target: T9, Human Siglec-3 (human, UniProt P20138 18-364); assay: flow cytometry on CHO HuSiglec-3 cell line
T9 construct: CHO HuSiglec-3 cell line; also called HuSiglec-3; CD33
Protocol: as §1, §2

Human Siglec-11 = target: T3, Human Siglec-11; assay: flow cytometry on CHO HuSiglec-11 cell line
Protocol: as §1, §2

T4 sequence (Q96PQ1 19-595): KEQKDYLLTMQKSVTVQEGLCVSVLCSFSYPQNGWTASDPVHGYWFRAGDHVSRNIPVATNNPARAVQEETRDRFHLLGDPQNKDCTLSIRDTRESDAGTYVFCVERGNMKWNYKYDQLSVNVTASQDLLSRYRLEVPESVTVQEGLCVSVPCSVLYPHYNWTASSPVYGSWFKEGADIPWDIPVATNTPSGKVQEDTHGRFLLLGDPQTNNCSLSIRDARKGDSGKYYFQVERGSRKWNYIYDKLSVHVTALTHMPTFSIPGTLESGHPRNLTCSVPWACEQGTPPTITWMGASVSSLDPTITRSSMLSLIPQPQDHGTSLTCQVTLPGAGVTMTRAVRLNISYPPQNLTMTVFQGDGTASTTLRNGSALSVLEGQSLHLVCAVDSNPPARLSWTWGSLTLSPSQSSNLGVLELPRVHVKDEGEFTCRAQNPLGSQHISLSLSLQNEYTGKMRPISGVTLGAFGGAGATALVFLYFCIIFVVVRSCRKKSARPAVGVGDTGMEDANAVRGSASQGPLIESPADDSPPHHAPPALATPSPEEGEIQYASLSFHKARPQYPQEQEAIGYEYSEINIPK
T8 sequence (Q9NYZ4 17-499): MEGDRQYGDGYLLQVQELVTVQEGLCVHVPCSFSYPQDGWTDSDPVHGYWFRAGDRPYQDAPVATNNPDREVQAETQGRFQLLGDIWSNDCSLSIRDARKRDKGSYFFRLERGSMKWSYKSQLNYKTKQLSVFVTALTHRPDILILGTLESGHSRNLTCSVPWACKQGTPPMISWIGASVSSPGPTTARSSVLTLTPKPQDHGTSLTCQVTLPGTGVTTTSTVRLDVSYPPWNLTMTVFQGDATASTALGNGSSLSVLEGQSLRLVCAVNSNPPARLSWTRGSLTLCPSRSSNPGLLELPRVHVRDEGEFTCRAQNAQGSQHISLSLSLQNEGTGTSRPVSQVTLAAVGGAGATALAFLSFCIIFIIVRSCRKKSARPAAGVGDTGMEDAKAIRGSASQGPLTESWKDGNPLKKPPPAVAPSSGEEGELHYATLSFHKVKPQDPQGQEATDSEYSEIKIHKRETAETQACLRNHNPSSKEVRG
T5 sequence (O43699 other isoform, or with tags, fused parts or gaps): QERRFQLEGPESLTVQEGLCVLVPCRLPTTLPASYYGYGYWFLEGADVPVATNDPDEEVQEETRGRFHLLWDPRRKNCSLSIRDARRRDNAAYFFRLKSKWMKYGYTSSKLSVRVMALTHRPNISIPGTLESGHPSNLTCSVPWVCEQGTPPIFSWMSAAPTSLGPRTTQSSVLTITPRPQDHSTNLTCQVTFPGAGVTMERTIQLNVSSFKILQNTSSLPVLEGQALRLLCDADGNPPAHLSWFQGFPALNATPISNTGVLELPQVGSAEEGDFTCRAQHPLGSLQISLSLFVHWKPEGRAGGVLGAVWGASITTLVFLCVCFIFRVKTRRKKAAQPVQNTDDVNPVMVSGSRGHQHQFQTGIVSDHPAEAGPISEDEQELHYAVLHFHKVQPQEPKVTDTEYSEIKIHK
T6 sequence (Q9Y336 18-463): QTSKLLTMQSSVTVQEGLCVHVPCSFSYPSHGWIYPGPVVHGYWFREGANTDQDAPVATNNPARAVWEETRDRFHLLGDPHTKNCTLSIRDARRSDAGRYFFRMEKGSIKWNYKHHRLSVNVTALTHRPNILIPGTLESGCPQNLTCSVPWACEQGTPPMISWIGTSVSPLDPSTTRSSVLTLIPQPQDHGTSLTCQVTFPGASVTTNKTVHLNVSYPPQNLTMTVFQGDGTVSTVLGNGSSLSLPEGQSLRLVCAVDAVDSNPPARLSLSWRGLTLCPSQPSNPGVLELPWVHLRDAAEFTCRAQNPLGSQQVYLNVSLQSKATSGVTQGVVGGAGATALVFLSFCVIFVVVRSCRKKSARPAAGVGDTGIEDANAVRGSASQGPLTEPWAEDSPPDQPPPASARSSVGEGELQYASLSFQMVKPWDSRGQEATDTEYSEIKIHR
T7 sequence (Q9Y286 19-467): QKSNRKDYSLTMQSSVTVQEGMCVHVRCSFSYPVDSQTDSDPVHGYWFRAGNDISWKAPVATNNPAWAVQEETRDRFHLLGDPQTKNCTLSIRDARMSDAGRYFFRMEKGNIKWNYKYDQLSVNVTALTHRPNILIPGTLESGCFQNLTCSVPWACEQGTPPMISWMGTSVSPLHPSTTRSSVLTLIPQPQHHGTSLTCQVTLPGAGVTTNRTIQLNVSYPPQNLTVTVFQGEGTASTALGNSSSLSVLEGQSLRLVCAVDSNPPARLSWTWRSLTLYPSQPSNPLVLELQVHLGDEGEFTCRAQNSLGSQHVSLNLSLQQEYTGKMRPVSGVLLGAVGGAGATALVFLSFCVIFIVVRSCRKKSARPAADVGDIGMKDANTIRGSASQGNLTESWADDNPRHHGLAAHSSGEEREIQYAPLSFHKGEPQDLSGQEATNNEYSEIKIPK
T9 sequence (P20138 18-364 R69G): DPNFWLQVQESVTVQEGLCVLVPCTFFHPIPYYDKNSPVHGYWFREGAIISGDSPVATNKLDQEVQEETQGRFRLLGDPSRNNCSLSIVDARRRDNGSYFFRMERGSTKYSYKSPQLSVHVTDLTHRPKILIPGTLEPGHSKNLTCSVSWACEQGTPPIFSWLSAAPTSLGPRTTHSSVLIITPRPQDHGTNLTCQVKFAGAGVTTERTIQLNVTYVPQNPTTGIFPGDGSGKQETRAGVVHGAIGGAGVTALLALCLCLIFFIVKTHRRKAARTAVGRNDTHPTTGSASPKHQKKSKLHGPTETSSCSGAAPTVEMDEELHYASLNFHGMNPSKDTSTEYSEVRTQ

binding result (Human Siglec-10) | binding result (Human Siglec-5) | binding result (Human Siglec-12) | binding result (Human Siglec-6) | binding result (Human Siglec-9) | binding result (Human Siglec-7) | binding result (Human Siglec-8) | binding result (Human Siglec-3) | binding result (Human Siglec-11) | Binder
no binding | no binding | no binding | no binding | binds | binds | no binding | no binding | no binding | antibody 1H9 (antibody, V domains shown, Mouse-derived; also called mAb 1H9) VH: QVQLQQSGAELVRPGASVKLSCKAMGNTFTDYEMHWVKQTPVHGLEWIGAIHPGSGGTVYNQKFRGKAALTADKSSSTAYMELSSLTSEDSAVYYCTREVSGTVYWGQGTTLTVSS VL: DIVMTQAAFSNPVTLGTSASISCRSSKSLLHSNGITYLFWYLQKPGQSPQLLIYQMSNLASGVPDRFSSSGSGTDFTLRISRVEAEDVGVYYCAQNLELPWTFGGGTKLEIK
no binding | no binding | no binding | no binding | binds | binds | no binding | no binding | no binding | antibody 3A11 (antibody, V domains shown, Raised in Balb/c mice; hybridoma supernatants were screened with goat anti-mouse detection, and selected antibodies were also made as chimeric human IgG1 (also with N297Q); also called mAb 3A11) VH: EVQLQQSGTVLARPGASVKMSCKASGYSFTSYWMHWVKQRPGQGLEWIGAIYPGNSDTSYNQKFKDKAKLTAVTSASTAYMELSSLTNEDSAVYYCTTYYRYDGGFDYWGQGTTLTVSS VL: DIQMTQSPKSMSMSVGERVTLSCKASETVGTYVSWYQQKPEQSPKLLIFGASNRNTGVPDRFTGSGSATDFTLTISSVQAEDLADYHCGQSYNYPYTFGGGTKLEIK
no binding | no binding | no binding | no binding | binds | binds | no binding | no binding | no binding | antibody 2B4 (antibody, V domains shown, Mouse-derived; also called mAb 2B4) VH: EVQLQQSGTVLARPGASVKMSCKASGYSFTNYWMHWVKQRPGQGLEWIGAIYPGNSDTSYIQKFKGKAKLTAVTSASTAYMELSSLTNEDSAVYYCTTYYRYDGGFDYWGQGTTLTVSS VL: DIVMTQSPKSMSMSVGERVTLSCKASENVDTYVSWYQQKPDQSPKLLLYGASNRNTGVPDRFTGSGSATDFTLTISNVQAEDLADYHCGQSYSQPYTFGGGTKLEIK
